Test [1] addresses human SETD3 (residues 1-497) (human) (UniProt Q86TU7). The experiment in a line: ITC. On the technique in general: ITC needs no label: the signal is the heat of the interaction.
Test [2] shares this target. The experiment in a line: ITC. The source holds these as a separate data set.

Like-named read-outs stand apart in the source and are kept apart here.

As a reminder, the Kd is a measure of binding affinity in units of concentration. High values mean a looser complex, low ones a tighter complex. In the case of “β-actin peptide, residues 66-81, with 3-pyridylalanine at position 73 (βA-3PyrAla73) (from UniProt P60709 66-81)”, the Kd came to 48.5 µM in test [1] and 44.4 µM in test [2].

Regarding “β-actin peptide, residues 66-81, with 4-pyridylalanine at position 73 (βA-4PyrAla73) (from UniProt P60709 66-81)”, the Kd amounted to 4.9 µM in test [1] and 3.1 µM in test [2].

On to “β-actin peptide, residues 66-81, with ornithine at position 73 (βA-Orn73) (from UniProt P60709 66-81)”, for which the Kd is 39.2 µM in test [1] and 7.2 µM in test [2].

Consider “β-actin peptide, residues 66-81, with β-triazolylalanine at position 73 (βA-βTriaA73) (from UniProt P60709 66-81)”, for which the figures for the Kd in test [1] and in test [2] were 4 µM and 0.8 µM, respectively.

Values taken from publication doi:10.1101/2021.12.30.474520.
